# Reference: article PMC6461443, “Complement C4 Prevents Viral Infection through Capsid Inactivation” (Cell Host & Microbe, 2019)
# B1: Ad5 fiber protein (natural protein)
# chain: MKRARPSEDTFNPVYPYDTETGPPTVPFLTPPFVSPNGFQESPPGVLSLRLSEPLVTSNGMLALKMGNGLSLDEAGNLTSQNVTTVSPPLKKTKSNINLEISAPLTVTSEALTVAAAAPLMVAGNTLTMQSQAPLTVHDSKLSIATQGPLTVSEGKLALQTSGPLTTTDSSTLTITASPPLTTATGSLGIDLKEPIYTQNGKLGLKYGAPLHVTDDLNTLTVATGPGVTINNTSLQTKVTGALGFDSQGNMQLNVAGGLRIDSQNRRLILDVSYPFDAQNQLNLRLGQGPLFINSAHNLDINYNKGLYLFTASNNSKKLEVNLSTAKGLMFDATAIAINAGDGLEFGSPNAPNTNPLKTKIGHGLEFDSNKAMVPKLGTGLSFDSTGAITVGNKNNDKLTLWTTPAPSPNCRLNAEKDAKLTLVLTKCGSQILATVSVLAVKGSLAPISGTVQSAHLIIRFDENGVLLNNSFLDPEYWNFRNGDLTEGTAYTNAVGFMPNLSAYPKSHGKTAKSNIVSQVYLNGDKTKPVTLTITLNGTQETGDTTPSAYSMSFSWDWSGHNYINEIFATSSYTFSYIAQE
# notes: source: in Ad5 (E1/E3 deleted) virions, bought: ViraQuest
# B2: Ad5 penton base (natural protein)
# chain: MRRAAMYEEGPPPSYESVVSAAPVAAALGSPFDAPLDPPFVPPRYLRPTGGRNSIRYSELAPLFDTTRVYLVDNKSTDVASLNYQNDHSNFLTTVIQNNDYSPGEASTQTINLDDRSHWGGDLKTILHTNMPNVNEFMFTNKFKARVMVSRLPTKDNQVELKYEWVEFTLPEGNYSETMTIDLMNNAIVEHYLKVGRQNGVLESDIGVKFDTRNFRLGFDPVTGLVMPGVYTNEAFHPDIILLPGCGVDFTHSRLSNLLGIRKRQPFQEGFRITYDDLEGGNIPALLDVDAYQASLKDDTEQGGGGAGGSNSSGSGAEENSNAAAAAMQPVEDMNDHAIRGDTFATRAEEKRAEAEAAAEAAAPAAQPEVEKPQKKPVIKPLTEDSKKRSYNLISNDSTFTQYRSWYLAYNYGDPQTGIRSWTLLCTPDVTCGSEQVYWSLPDMMQDPVTFRSTRQISNFPVVGAELLPVHSKSFYNDQAVYSQLIRQFTSLTHVFNRFPENQILARPPAPTITTVSENVPALTDHGTLPLRNSIGGVQRVTITDARRRTCPYVYKALGIVSPRVLSSRTF
# notes: as for B1
# Biological target: T1, Ad5 hexon, in the virion (human adenovirus 5, UniProt P04133 1-952)
# T1 construct: source: in Ad5 (E1/E3 deleted) virions, bought: ViraQuest
# Assay: co-IP
# Conditions: both partners purified
# T1 sequence (P04133 whole entry): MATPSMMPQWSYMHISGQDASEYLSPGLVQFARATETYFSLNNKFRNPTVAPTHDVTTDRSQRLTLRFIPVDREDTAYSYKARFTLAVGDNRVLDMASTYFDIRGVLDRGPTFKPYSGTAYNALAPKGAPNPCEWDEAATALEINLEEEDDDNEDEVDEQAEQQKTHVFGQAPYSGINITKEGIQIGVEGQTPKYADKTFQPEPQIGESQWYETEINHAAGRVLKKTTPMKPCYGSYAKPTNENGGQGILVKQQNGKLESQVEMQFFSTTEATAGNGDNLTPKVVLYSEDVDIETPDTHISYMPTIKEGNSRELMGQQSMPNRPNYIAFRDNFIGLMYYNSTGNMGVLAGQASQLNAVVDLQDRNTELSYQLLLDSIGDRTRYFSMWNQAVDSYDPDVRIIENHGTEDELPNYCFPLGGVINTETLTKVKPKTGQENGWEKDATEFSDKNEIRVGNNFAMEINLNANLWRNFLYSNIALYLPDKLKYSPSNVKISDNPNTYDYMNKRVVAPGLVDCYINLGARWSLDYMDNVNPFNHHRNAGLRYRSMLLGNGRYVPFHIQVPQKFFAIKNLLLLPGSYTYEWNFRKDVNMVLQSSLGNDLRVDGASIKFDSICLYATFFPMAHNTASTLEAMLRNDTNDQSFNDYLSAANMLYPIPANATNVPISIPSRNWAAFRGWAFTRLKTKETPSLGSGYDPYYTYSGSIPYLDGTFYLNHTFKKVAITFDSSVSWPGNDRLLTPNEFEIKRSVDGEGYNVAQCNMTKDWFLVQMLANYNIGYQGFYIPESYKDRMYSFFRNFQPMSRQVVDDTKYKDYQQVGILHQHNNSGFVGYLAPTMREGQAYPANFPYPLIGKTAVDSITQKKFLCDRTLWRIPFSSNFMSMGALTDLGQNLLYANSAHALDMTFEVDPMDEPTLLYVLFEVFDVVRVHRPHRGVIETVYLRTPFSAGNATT
row,Binder,binding result
1,B1,binds
2,B2,binds
